B1: LINE1-full (parent)
chain: UACGUAGGUGGUUUUCCCCUGAUAGUGCUAAGGGGGCCUGGAAGUUUGGACUGGGCAGAGCUCAACACAGCGUGGCAAAGUGGCUGUGGCUAGACUGCCUCUCUGGAUUCCUCGUCACUCAGCAGGGCAUCUCUGAGAGAAAUGCC

Variants of: B1
Experiment: self-cleavage, relative activity (ratio to wild type); higher = more cleavage; in vitro, sequencing; the parent is a self-cleaving ribozyme

Compared with UACGUAGGUGGUUUUCCCCUGAUAGUGCUAAGGGGGCCUGGAAGUUUGGACUGGGCAGAGCCCAACACAGCGUGGCAAAGUGGCUGUGGCUAGACUGCCUCUCUGGAUUCCUCGUCACUCAGCAGGGCAUCUCUGAGAGAAAUGCU [U62C C146U], UACGUAGGUGGUUUUCCCCUGAUAGUGCUAAGGGGGCCUGGAAGUUUGGACUGGGCAGAGCUCAACACAGCGUGGCAAAGUGGCUGUGGCUGGACUGCCUCUCUGGAUUCCUCGUCACUCAGCAGGGCAUCUCUGAGAGAAAUGCC [A92G] is higher in self-cleavage: 0.03 for the first, 0.1 for the second.

First: UACGUAGGUGGUUUUCCCCUGAUAGUGCUAAGGGGGCCUGGAAGUUUGGACUGGGCAGAGCUCAACACAGCGUGGCAAAGUGGCUGUGGCUUGACUGCCUCUCUGGAUUCCUCGUCACUCAGCAGGGCAUCUCAGAGAGAAAUGCC [A92U U134A]
Second: UACGUAGGUGGUUUUCCCCUGAUGGUGCUAAGGGGGCCUGGAAGUUUGGACUGGGCAGAGCUCAACACAGCGUGGCAAAGUGGCUGUGGCUAGACUGCCUCUCUGGAUUCCUCGUCACUCAGCAGGGCAUCUCUGAGAGAAAUACC [A24G G144A]
The self-cleavage of the first is lower: 0.52 for the first, 1.35 for the second.

Going from UACAUAGGUGGUUUUCCCCUGAUAGUGCUAAGGGGGCCUGGAAGUUUGGACCGGGCAGAGCUCAACACAGCGUGGCAAAGUGGCUGUGGCUAGACUGCCUCUCUGGAUUCCUCGUCACUCAGCAGGGCAUCUCUGAGAGAAAUGCC [G4A U52C] to UACGUAGGUGGUUUUCCCCUGAUAGUGCUAAGGGGGCCUGGAAGUUUGGACUGGGCAGGGCUCAACACAGCGUGGCAAAGUGGCUGUGGCUAGACUGCCUCUCUGGAUUCCUCGUAACUCAGCAGGGCAUCUCUGAGAGAAAUGCC [A59G C116A], the self-cleavage falls from 0.88 to 0.04.

First: UACGUAGGUGGUUUUCCCCUGAUAGUGCUAAGGGGGUCAGGAAGUUUGGACUGGGCAGAGCUCAACACAGCGUGGCAAAGUGGCUGUGGCUAGACUGCCUCUCUGGAUUCCUCGUCACUCAGCAGGGCAUCUCUGAGAGAAAUGCC [C37U U39A]
Second: AACGUAGGUGGUUUUCCCCUGAUAGUGCUAAGGGGGCCUGGAAGUUUGGACUGGGCAGAGCUCAACACAGCGUGGCAAAGUGGCUGUGGCUAGACUGCCUCUCUGGAUUCCUCGUCACUCAGCAGGGCAUCUCUGAGAGAAAAGCC [U1A U143A]
The self-cleavage of the first is higher: 1.12 for the first, 1.04 for the second.

First: UACGUAGGUGGUUUUCCCCUGAUAGUGCUAAGGGGGCCUGGAAGUUUGGACUGGGCAGAGCUCAACACUGCGUGGCAAAGUGGCUGUGGCUAGACUGCCUCUCUGGAUCCCUCGUCACUCAGCAGGGCAUCUCUGAGAGAAAUGCC [A69U U109C]
Second: UACGUAGGUGGUUUUCCCCUAAUAGUGCUAAGGGGGCCUGGAAGUUUGGACUGGGCAGAGCUCAACACAGCGUGGCAAAGUGGCUGUGGCUAGACUGCCUCUCUGGAUUCCUCGUCACUCAGCAGGGCUUCUCUGAGAGAAAUGCC [G21A A129U]
The self-cleavage of the first is lower: 0.06 for the first, 1.17 for the second.

Compared with UACGUAGGUGGUUUUCCCCUGAUAGUGCUAAGGGGGCCUGGAAGUUUGGACUGGGCAGAGCUCAACACAGCGUGGCAAAGUGGCUGCGGCUAGACUGCCUCUCUGGAUUCCUCGUCACUCAGCAGGGCGUCUCUGAGAGAAAUGCC [U87C A129G], UACGUAGGUGGUUUUCCCCUGAUAGUGCUUAGGGGGCAUGGAAGUUUGGACUGGGCAGAGCUCAACACAGCGUGGCAAAGUGGCUGUGGCUAGACUGCCUCUCUGGAUUCCUCGUCACUCAGCAGGGCAUCUCUGAGAGAAAUGCC [A30U C38A] is higher in self-cleavage: 0.07 for the first, 0.35 for the second.

Going from UACGUAGGUGGUUUUCCCCUGAUAGUGCUAAGGGGGCCUGGAAGUUAGGACUGGGCAGAGCUUAACACAGCGUGGCAAAGUGGCUGUGGCUAGACUGCCUCUCUGGAUUCCUCGUCACUCAGCAGGGCAUCUCUGAGAGAAAUGCC [U47A C63U] to UACGUAGGUGGUUUUCCCCUGAUAGUGCUAAGGGGGCCUGGAAGUUUGGACUGGGCAGAGCUCAACACAGCGUGGCAAAGUGGCUGUGGCUAGACUACCUCUCUGGAUUCCUCGUCACUCAGCAGGGCAUCUCUGAGAGUAAUGCC [G97A A140U], the self-cleavage falls from 0.33 to 0.02.

Going from UACGUAGGUGGUUUUCCCCUGAUAGUGCCAAGGGGGCCUGGAAGUUUGGACUGGGCAGAGCUCAACACAGCGUGGCAAAGUGGCUGUGGCUAGUCUGCCUCUCUGGAUUCCUCGUCACUCAGCAGGGCAUCUCUGAGAGAAAUGCC [U29C A94U] to UACGUAGGUGAUUUUCCCCUGAUAGUGCUAAGGGGGCCUGGAAGUUUGGACCGGGCAGAGCUCAACACAGCGUGGCAAAGUGGCUGUGGCUAGACUGCCUCUCUGGAUUCCUCGUCACUCAGCAGGGCAUCUCUGAGAGAAAUGCC [G11A U52C], the self-cleavage rises from 0.56 to 1.41.

First: UACGUAGGUGGUUUUCCCCUGAUAGUGCUAAGGGGGACUGGAAGUUUGGACUGGGCAGAGCUCAACACAGCGUGGCAAAGUGGCUGUGGCUCGACUGCCUCUCUGGAUUCCUCGUCACUCAGCAGGGCAUCUCUGAGAGAAAUGCC [C37A A92C]
Second: UACGUAGGUGGUUUUCCCCUGAUAGUGCUAAGGGGGCCUGGAAGUCUGGACUGGGCAGAGCUCAACACAGCGUGGCAAAGUGGCUGUGGCUAGACUGCCUCUCUGGAUUCCUCGUCACUCGGCAGGGCAUCUCUGAGAGAAAUGCC [U46C A121G]
The self-cleavage of the first is lower: 0.2 for the first, 1.64 for the second.

First: UACGUAGGUGGUUUUCCCCUGAUAGUGCUAAGGGGGCCUGGAAGUUUGGACUGGGCAGAGCUAAACACAGCGUGGCAAAGUGGCUGUGGCUAGGCUGCCUCUCUGGAUUCCUCGUCACUCAGCAGGGCAUCUCUGAGAGAAAUGCC [C63A A94G]
Second: UACGUAGGUGGUUUUCCCCUGAUAGUGCUAGGGGGGCUUGGAAGUUUGGACUGGGCAGAGCUCAACACAGCGUGGCAAAGUGGCUGUGGCUAGACUGCCUCUCUGGAUUCCUCGUCACUCAGCAGGGCAUCUCUGAGAGAAAUGCC [A31G C38U]
The self-cleavage of the first is lower: 0.08 for the first, 0.99 for the second.

Going from UACGUAGGUGGUUUUCCCCUGAAAGUGCUAAGGGGGCCUGGAAGUUUGGACUGGGCAGAGCUCAACACAGCGUGGCAAAGUGGCUGUGGCUGGACUGCCUCUCUGGAUUCCUCGUCACUCAGCAGGGCAUCUCUGAGAGAAAUGCC [U23A A92G] to UACGUAGGUGGUUUUCCCCUGAUAGUGCUAAGGGGGCCUGGAAGUUUGGACUGGGCAGAGCUCAACACAGCGUGGCAAAGUGGCUGUGGCUAGACCGCCUUUCUGGAUUCCUCGUCACUCAGCAGGGCAUCUCUGAGAGAAAUGCC [U96C C101U], the self-cleavage falls from 0.12 to 0.06.

Going from UACGUAGGUGGUUUUCCCCUGAUAGUGCUAAGGGGGCCUGGAAGUUUGGACUGGGCAGAGCUCAACACAGCGUGGCAAGGUGGCUGUGGCUAGACUGCCUAUCUGGAUUCCUCGUCACUCAGCAGGGCAUCUCUGAGAGAAAUGCC [A79G C101A] to UACGUAGGUGGUUUUCCCCGGAUAGUGCUAAGGGGGCCUGGAAGUUUGGACUGGGCAGAGCUCAACACGGCGUGGCAAAGUGGCUGUGGCUAGACUGCCUCUCUGGAUUCCUCGUCACUCAGCAGGGCAUCUCUGAGAGAAAUGCC [U20G A69G], the self-cleavage rises from 0.68 to 1.05.

Going from UACGUAGGUGGUUUUCCCCUGAUAGUGCUGAGGGGGCCUGGAAGUUUGGACUGGGCAGAGCUCAACACCGCGUGGCAAAGUGGCUGUGGCUAGACUGCCUCUCUGGAUUCCUCGUCACUCAGCAGGGCAUCUCUGAGAGAAAUGCC [A30G A69C] to UACGUAGGUGGUUUUCCCCUGAUAGUGCUAAGGAGGCCUGGAAGUUUGGACUGGGCAGAGCUCAACACAGCGUGGCAAAGUGGCUGUGGCUAGGCUGCCUCUCUGGAUUCCUCGUCACUCAGCAGGGCAUCUCUGAGAGAAAUGCC [G34A A94G], the self-cleavage falls from 0.26 to 0.18.

Going from UACGUAGGUGGUUUUCCCCUGAUAGUGCUAAGGGGGCCUGGAAGUUUGGACUGGGCAGAGCUCAACACAGCGUGGCAAAGUGGCUGUGGCUAGACAGCCUCUCUGGAUUCCUCGUCACUCGGCAGGGCAUCUCUGAGAGAAAUGCC [U96A A121G] to UACGUAGGUGGUUUUCCCCUGAUAGUGCUAAGGGGGCCUGGAAGAUUGGACUGGGCAGAGCUCAACACAGCGUGGCAAAGUGGCUGUGGCUAGACUGCCUCUCUGGAUUCCUCGUCACUCUGCAGGGCAUCUCUGAGAGAAAUGCC [U45A A121U], the self-cleavage rises from 0.1 to 0.99.

Going from UACGUAGGUGGUUUUCCCCUGAUAGUGCUAAGGGGGCCCGGAAGUUUGGACUGGGCAGAGCUCAACACAGCGUGGCAAAGUGGCUGUGGCUAGACUGCCUCUCUGGAUUCCUCGUCACUCAGCAGGGCAUCUCUGAGAGAAAUGCC [U39C] to UACGUAGGUGGUUUUCCCCUGAUAGUGCUAAGGGGGCCUGGAAGUGUGGACUGGGCAGAGCUCAACACAGCGUGGCAAAGUGGCUGUGGCUAGACUGCCUCUCUGGAUUCCUCGUCACUCAGCAGGGCAUCUCUGAGAGAAAUGCC [U46G], the self-cleavage rises from 1.14 to 1.25.

Compared with UAUGUAGGUGGUUUUCCCCUGAUAGUGCUAAGGGGGCCUGGAAGUUUGGACUGGGCAGAGCUCAACACAGCGUGGCAAAGUGGCUGUGGCUAGGCUGCCUCUCUGGAUUCCUCGUCACUCAGCAGGGCAUCUCUGAGAGAAAUGCC [C3U A94G], UACGUAGGUGGUUUUCCCCUGAUAGUGCUAAGGGGGCCUGGAAGUUUGGACUGGGCAGAGCUCAACACAGCGUGGCAAAGUGGCUGUGGCUAGACUGCCUCUCUGGAUUCCUCGUCACUCAGUAGGGCAUCCCUGAGAGAAAUGCC [C123U U132C] is higher in self-cleavage: 0.54 for the first, 1.53 for the second.

Going from UACGUAGGUGGUCUGCCCCUGAUAGUGCUAAGGGGGCCUGGAAGUUUGGACUGGGCAGAGCUCAACACAGCGUGGCAAAGUGGCUGUGGCUAGACUGCCUCUCUGGAUUCCUCGUCACUCAGCAGGGCAUCUCUGAGAGAAAUGCC [U13C U15G] to UACGUAGGUGGCUUUCCCCUGAUAGUGCUAAGGGGGCCUGGAAGUUUGGACUGGGCAGAGCUCAACACAGCGUGGCAAAGUGGCUGUGGCUAGACUGCCUCUCUGGAUUCCUCGUCACUCAGCAGGGCAUCUCUGAGAGAAAUACC [U12C G144A], the self-cleavage rises from 0.75 to 1.08.

Compared with UACGAAGGUGGCUUUCCCCUGAUAGUGCUAAGGGGGCCUGGAAGUUUGGACUGGGCAGAGCUCAACACAGCGUGGCAAAGUGGCUGUGGCUAGACUGCCUCUCUGGAUUCCUCGUCACUCAGCAGGGCAUCUCUGAGAGAAAUGCC [U5A U12C], UACGUAGGUGGUUUUCCCCUGAUAGUGCUAAGGGGGCCUGGAAGUUUGGACUGGGCAGAGCUCAACACAGCGUGGCAAAGUGGCUGUGGCUAGACUGCCACUCUGGAUUCCUCGUCACACAGCAGGGCAUCUCUGAGAGAAAUGCC [U100A U119A] is lower in self-cleavage: 0.74 for the first, 0.71 for the second.

Compared with UACGUAGGUGGUUUUCCCCUGAUAGUGCUAAGGGGGCCUGGAAGUUUGGACUGGGCAGAGCUCAACACAGCGUGGCAAAGUGGCUACGGCUAGACUGCCUCUCUGGAUUCCUCGUCACUCAGCAGGGCAUCUCUGAGAGAAAUGCC [G86A U87C], UACGUAGGUGAUUUUCCCCUGAUAGUGCUAAGGGGGCCUGGAAGUUUGGACUGGGCAGAGCUCAACACAGCGUGGCAAAGUGGCUGUGGCUAGACUGCCUCUCUGGAUUCCUCGUCACUCAGCAGAGCAUCUCUGAGAGAAAUGCC [G11A G126A] is higher in self-cleavage: 0.04 for the first, 1.2 for the second.

In the case of UACGUAGGUGGUUUUCCCCUGAUAGUGCUAAGGGGGCCUGGAAGUUUGGACUGGGCAGAGCUCAACACAGCGUGGCAAAGUGGCUGUGGCUAGACUGCCUCUCUGGACUCCUCGUCACUCAGCGGGGCAUCUCUGAGAGAAAUGCC [U108C A124G], the self-cleavage is reported as 1.47.
